Laboratory results from patent publication US20260242735A1 (UNIVERSIT T BASEL, published 2026).

Experiments:
Assay in all cases: flow cytometry, mutant on cells, IgG
[1] = target: human CD33 W22R (human, UniProt P20138 18-364)
Experimental: (§1) An alanine scan on human CD33 was performed to the determine the residues on CD33 that are involved in binding to the antibodies investigated. […] Briefly, a mutation library of CD33 was created by high-throughput, site-directed mutagenesis. Each residue was individually mutated to alanine, with alanine codons mutated to serine. The mutant library was arrayed in 384-well microplates and transiently transfected into HEK293-T. Following transfection, cells were incubated with the indicated antibodies (IgG or Fab) at concentrations pre-determined using an independent immunofluorescence titration curve on wild type CD33. […] Binding of each antibody to each mutant clone was determined in duplicates. For each point, background fluorescence was subtracted from the raw data, which were then normalized to antibody reactivity with wild type CD33.
(§2) Antibodies were screened for binding to the human CD33 variants in IgG format. […] For each mutation, background fluorescence was subtracted from the raw data, which were then normalized to antibody reactivity with wild-type CD33.

[2] = target: human CD33 P19D (human, UniProt P20138 18-364)
Experimental: as §1, §2

[3] = target: human CD33 Q24S (human, UniProt P20138 18-364)
Experimental: as §1, §2

[4] = target: human CD33 D18R (human, UniProt P20138 19-364)
Experimental: as §1, §2

[5] = target: human CD33 F44H (human, UniProt P20138 18-364)
Experimental: as §1, §2

[6] = target: human CD33 V25S (human, UniProt P20138 18-364)
Experimental: as §1, §2

[7] = target: human CD33 F21V (human, UniProt P20138 18-364)
Experimental: as §1, §2

[8] = target: human CD33 N20E (human, UniProt P20138 18-364)
Experimental: as §1, §2

[9] = target: human CD33 F21L (human, UniProt P20138 18-364)
Experimental: as §1, §2

[10] = target: human CD33 Q24E (human, UniProt P20138 18-364)
Experimental: as §1, §2

[11] = target: human CD33 N20Q (human, UniProt P20138 18-364)
Experimental: as §1, §2

[12] = target: human CD33 I47T (human, UniProt P20138 18-364)
Experimental: as §1, §2

[13] = target: human CD33 P46I (human, UniProt P20138 18-364)
Experimental: as §1, §2

[14] = target: human CD33 P46F (human, UniProt P20138 18-364)
Experimental: as §1, §2

[15] = target: human CD33 W22G (human, UniProt P20138 18-364)
Experimental: as §1, §2

[16] = target: human CD33 N20L (human, UniProt P20138 18-364)
Experimental: as §1, §2

[17] = target: human CD33 Q24I (human, UniProt P20138 18-364)
Experimental: as §1, §2

[18] = target: human CD33 F21S (human, UniProt P20138 18-364)
Experimental: as §1, §2

[19] = target: human CD33 N20P (human, UniProt P20138 18-364)
Experimental: as §1, §2

[20] = target: human CD33 W22P (human, UniProt P20138 18-364)
Experimental: as §1, §2

[21] = target: human CD33 W22N (human, UniProt P20138 18-364)
Experimental: as §1, §2

[22] = target: human CD33 F44E (human, UniProt P20138 18-364)
Experimental: as §1, §2

[23] = target: human CD33 F44P (human, UniProt P20138 18-364)
Experimental: as §1, §2

[24] = target: human CD33 T42N (human, UniProt P20138 18-364)
Experimental: as §1, §2

[25] = target: human CD33 P46Y (human, UniProt P20138 18-364)
Experimental: as §1, §2

[26] = target: human CD33 P46S (human, UniProt P20138 18-364)
Experimental: as §1, §2

[27] = target: human CD33 F21I (human, UniProt P20138 18-364)
Experimental: as §1, §2

[28] = target: human CD33 P19W (human, UniProt P20138 18-364)
Experimental: as §1, §2

[29] = target: human CD33 P46D (human, UniProt P20138 18-364)
Experimental: as §1, §2

[30] = target: human CD33 Q24V (human, UniProt P20138 18-364)
Experimental: as §1, §2

[31] = target: human CD33 W22L (human, UniProt P20138 18-364)
Experimental: as §1, §2

[32] = target: human CD33 N20K (human, UniProt P20138 18-364)
Experimental: as §1, §2

[33] = target: human CD33 W22Y (human, UniProt P20138 18-364)
Experimental: as §1, §2

[34] = target: human CD33 F44T (human, UniProt P20138 18-364)
Experimental: as §1, §2

[35] = target: human CD33 I47S (human, UniProt P20138 18-364)
Experimental: as §1, §2

[36] = target: human CD33 L23M (human, UniProt P20138 18-364)
Experimental: as §1, §2

[37] = target: human CD33 N20Y (human, UniProt P20138 18-364)
Sequence of human CD33 N20Y (P20138 18-364 N20Y limits assumed): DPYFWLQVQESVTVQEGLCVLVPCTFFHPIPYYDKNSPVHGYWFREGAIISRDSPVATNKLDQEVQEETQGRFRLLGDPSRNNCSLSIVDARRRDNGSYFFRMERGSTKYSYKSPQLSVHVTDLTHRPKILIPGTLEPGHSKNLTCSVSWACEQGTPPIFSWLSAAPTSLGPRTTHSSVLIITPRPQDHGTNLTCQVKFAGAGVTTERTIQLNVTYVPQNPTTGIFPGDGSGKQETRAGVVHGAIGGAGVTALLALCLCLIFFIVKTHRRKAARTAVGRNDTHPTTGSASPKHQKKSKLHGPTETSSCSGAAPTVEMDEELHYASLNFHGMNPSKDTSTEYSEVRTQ
Experimental: as §1, §2

Sequence of human CD33 I47S (P20138 18-364 I47S limits assumed): as the sequence (P20138 18-364 N20Y limits assumed) above, with Y3N, I30S counted along it
Sequence of human CD33 W22L (P20138 18-364 W22L limits assumed): as the sequence (P20138 18-364 N20Y limits assumed) above, with Y3N, W5L counted along it
Sequence of human CD33 P46Y (P20138 18-364 P46Y limits assumed): as the sequence (P20138 18-364 N20Y limits assumed) above, with Y3N, P29Y counted along it
Sequence of human CD33 F21S (P20138 18-364 F21S limits assumed): as the sequence (P20138 18-364 N20Y limits assumed) above, with Y3N, F4S counted along it
Sequence of human CD33 W22Y (P20138 18-364 W22Y limits assumed): as the sequence (P20138 18-364 N20Y limits assumed) above, with Y3N, W5Y counted along it
Sequence of human CD33 F21L (P20138 18-364 F21L limits assumed): as the sequence (P20138 18-364 N20Y limits assumed) above, with Y3N, F4L counted along it
Sequence of human CD33 I47T (P20138 18-364 I47T limits assumed): as the sequence (P20138 18-364 N20Y limits assumed) above, with Y3N, I30T counted along it
Sequence of human CD33 T42N (P20138 18-364 T42N limits assumed): as the sequence (P20138 18-364 N20Y limits assumed) above, with Y3N, T25N counted along it
Sequence of human CD33 F21I (P20138 18-364 F21I limits assumed): as the sequence (P20138 18-364 N20Y limits assumed) above, with Y3N, F4I counted along it
Sequence of human CD33 P46I (P20138 18-364 P46I limits assumed): as the sequence (P20138 18-364 N20Y limits assumed) above, with Y3N, P29I counted along it
Sequence of human CD33 W22R (P20138 18-364 W22R limits assumed): as the sequence (P20138 18-364 N20Y limits assumed) above, with Y3N, W5R counted along it
Sequence of human CD33 L23M (P20138 18-364 L23M limits assumed): as the sequence (P20138 18-364 N20Y limits assumed) above, with Y3N, L6M counted along it
Sequence of human CD33 P46D (P20138 18-364 P46D limits assumed): as the sequence (P20138 18-364 N20Y limits assumed) above, with Y3N, P29D counted along it

| Binder | Mean % WT Binding [1] | Mean % WT Binding [2] | Mean % WT Binding [3] | Mean % WT Binding [4] | Mean % WT Binding [5] | Mean % WT Binding [6] | Mean % WT Binding [7] | Mean % WT Binding [8] | Mean % WT Binding [9] | Mean % WT Binding [10] | Mean % WT Binding [11] | Mean % WT Binding [12] | Mean % WT Binding [13] | Mean % WT Binding [14] | Mean % WT Binding [15] | Mean % WT Binding [16] | Mean % WT Binding [17] | Mean % WT Binding [18] | Mean % WT Binding [19] | Mean % WT Binding [20] | other results |
| --- | --- | --- | --- | --- | --- | --- | --- | --- | --- | --- | --- | --- | --- | --- | --- | --- | --- | --- | --- | --- | --- |
| Refmab #3 (antibody, human IgG1, V domains shown, Tested in IgG format; human IgG1 Fc silent (PG-LALA)) VH: QVQLVQSGAEVKKPGSSVKVSCKASGYTFTDYNMHWVRQAPGQGLEWIGYIYPYNGGTGYNQKFKSKATITADESTNTAYMELSSLRSEDTAVYYCARGRPAMDYWGQGTLVTVSS VL: DIQMTQSPSSLSASVGDRVTITCRASESVDNYGISFMNWFQQKPGKAPKLLIYAASNQGSGVPSRFSGSGSGTDFTLTISSLQPDDFATYYCQQSKEVPWTFGQGTKVEIK | 0.9 % WT binding | 0.6 % WT binding | 5.3 % WT binding | 5.3 % WT binding | 91.2 % WT binding | 104 % WT binding | 0.7 % WT binding | 0.5 % WT binding | 1 % WT binding | 0.8 % WT binding | 3.4 % WT binding | 72.4 % WT binding | 1.8 % WT binding | 0.2 % WT binding | 9 % WT binding | 9.4 % WT binding | 61.3 % WT binding | 3.4 % WT binding | 1.7 % WT binding | 0.5 % WT binding | Mean % WT Binding [21]: 3.5 % WT binding; Mean % WT Binding [22]: 33.3 % WT binding; Mean % WT Binding [23]: 2 % WT binding; Mean % WT Binding [24]: 95.5 % WT binding; Mean % WT Binding [25]: 0.8 % WT binding; Mean % WT Binding [26]: 3.5 % WT binding; Mean % WT Binding [27]: 0.5 % WT binding; Mean % WT Binding [28]: 71.2 % WT binding; Mean % WT Binding [29]: 0.6 % WT binding; Mean % WT Binding [30]: 24.5 % WT binding; Mean % WT Binding [31]: 1.5 % WT binding; Mean % WT Binding [32]: 0.8 % WT binding; Mean % WT Binding [33]: 11.5 % WT binding; Mean % WT Binding [34]: 83.3 % WT binding; Mean % WT Binding [35]: 94.9 % WT binding; Mean % WT Binding [36]: 98.1 % WT binding; Mean % WT Binding [37]: 0.6 % WT binding |
| Refmab #2 (antibody, human IgG1, V domains shown, Tested in IgG format; human IgG1 Fc silent (PG-LALA)) VH: QVQLVQSGAEVKKPGSSVKVSCKASGGTFSDYAISWVRQAPGQGLEWMGRIIPILGVADYAQKFQGRVTITADKSTRTAYMELSSLRSEDTAVYYCARNWADAFDIWGQGTMVTVSS VL: DIQLTQSPSSLSASVGDRVTITCRASQGISSVLAWYQQKPGKAPKLLIYDASSLESGVPSRFSGSGSGTDFTLTISSLQPEDFATYYCQQFDSSITFGQGTKLEIK | 115 % WT binding | 99.3 % WT binding | 108 % WT binding | 96.5 % WT binding | 0.4 % WT binding | 110 % WT binding | 117 % WT binding | 120 % WT binding | 120 % WT binding | 63.7 % WT binding | 125 % WT binding | 1.8 % WT binding | 55.8 % WT binding | 80.9 % WT binding | 113 % WT binding | 95.8 % WT binding | 96.8 % WT binding | 115 % WT binding | 98.5 % WT binding | 136 % WT binding | Mean % WT Binding [21]: 107 % WT binding; Mean % WT Binding [22]: 1.7 % WT binding; Mean % WT Binding [23]: 0.4 % WT binding; Mean % WT Binding [24]: 98.2 % WT binding; Mean % WT Binding [25]: 60.1 % WT binding; Mean % WT Binding [26]: 102 % WT binding; Mean % WT Binding [27]: 86.8 % WT binding; Mean % WT Binding [28]: 88.3 % WT binding; Mean % WT Binding [29]: 100 % WT binding; Mean % WT Binding [30]: 99.3 % WT binding; Mean % WT Binding [31]: 110 % WT binding; Mean % WT Binding [32]: 103 % WT binding; Mean % WT Binding [33]: 107 % WT binding; Mean % WT Binding [34]: 0.8 % WT binding; Mean % WT Binding [35]: 3.4 % WT binding; Mean % WT Binding [36]: 107 % WT binding; Mean % WT Binding [37]: 34.7 % WT binding |
| Refmab #1 (antibody, human IgG1, V domains shown, Tested in IgG format; human IgG1 (Absolute Antibody hP67.6, Cat. No. Ab00283-10.0); also called hP67.6) VH: EVQLVQSGAEVKKPGSSVKVSCKASGYTITDSNIHWVRQAPGQSLEWIGYIYPYNGGTDYNQKFKNRATLTVDNPTNTAYMELSSLRSEDTAFYYCVNGNPWLAYWGQGTLVTVSS VL: DIQLTQSPSTLSASVGDRVTITCRASESLDNYGIRFLTWFQQKPGKAPKLLMYAASNQGSGVPSRFSGSGSGTEFTLTISSLQPDDFATYYCQQTKEVPWSFGQGTKVEVK | 7.4 % WT binding | 2.6 % WT binding | 60.2 % WT binding | 60.6 % WT binding | 97.6 % WT binding | 106 % WT binding | 1.5 % WT binding | 0.3 % WT binding | 4.7 % WT binding | 17.1 % WT binding | 2.8 % WT binding | 97.2 % WT binding | 38.2 % WT binding | 1 % WT binding | 89.6 % WT binding | 78.5 % WT binding | 80 % WT binding | 6.4 % WT binding | 2.9 % WT binding | 2.7 % WT binding | Mean % WT Binding [21]: 76.5 % WT binding; Mean % WT Binding [22]: 92.7 % WT binding; Mean % WT Binding [23]: 37.1 % WT binding; Mean % WT Binding [24]: 99.4 % WT binding; Mean % WT Binding [25]: 0.9 % WT binding; Mean % WT Binding [26]: 21.4 % WT binding; Mean % WT Binding [27]: 1.9 % WT binding; Mean % WT Binding [28]: 73.8 % WT binding; Mean % WT Binding [29]: 0.6 % WT binding; Mean % WT Binding [30]: 92.6 % WT binding; Mean % WT Binding [31]: 45.8 % WT binding; Mean % WT Binding [32]: 0.4 % WT binding; Mean % WT Binding [33]: 98 % WT binding; Mean % WT Binding [34]: 107 % WT binding; Mean % WT Binding [35]: 105 % WT binding; Mean % WT Binding [36]: 94.4 % WT binding; Mean % WT Binding [37]: 0.4 % WT binding |
| Refmab #4 (antibody, human IgG1, V domains shown, Tested in IgG format; human IgG1 Fc silent (PG-LALA)) VH: QVQLVQSGAEVKKPGESVKVSCKASGYTFTNYGMNWVKQAPGQGLEWMGWINTYTGEPTYADKFQGRVTMTTDTSTSTAYMEIRNLGGDDTAVYYCARWSWSDGYYVYFDYWGQGTSVTVSS VL: DIVMTQSPDSLTVSLGERTTINCKSSQSVLDSSTNKNSLAWYQQKPGQPPKLLLSWASTRESGIPDRFSGSGSGTDFTLTIDSPQPEDSATYYCQQSAHFPITFGQGTRLEIK | 114 % WT binding | 94.8 % WT binding | 96.8 % WT binding | 100 % WT binding | 84.9 % WT binding | 106 % WT binding | 118 % WT binding | 100 % WT binding | 114 % WT binding | 69.7 % WT binding | 99.4 % WT binding | 82.4 % WT binding | 91 % WT binding | 42.4 % WT binding | 105 % WT binding | 89.8 % WT binding | 86.6 % WT binding | 118 % WT binding | 98.5 % WT binding | 104 % WT binding | Mean % WT Binding [21]: 100 % WT binding; Mean % WT Binding [22]: 112 % WT binding; Mean % WT Binding [23]: 104 % WT binding; Mean % WT Binding [24]: 101 % WT binding; Mean % WT Binding [25]: 26.5 % WT binding; Mean % WT Binding [26]: 107 % WT binding; Mean % WT Binding [27]: 96.3 % WT binding; Mean % WT Binding [28]: 82.8 % WT binding; Mean % WT Binding [29]: 110 % WT binding; Mean % WT Binding [30]: 81.5 % WT binding; Mean % WT Binding [31]: 108 % WT binding; Mean % WT Binding [32]: 102 % WT binding; Mean % WT Binding [33]: 86.1 % WT binding; Mean % WT Binding [34]: 97.1 % WT binding; Mean % WT Binding [35]: 90.1 % WT binding; Mean % WT Binding [36]: 92.7 % WT binding; Mean % WT Binding [37]: 25.7 % WT binding |
